# Reference: patent publication US20260201030A1, “ANTIBODY, ANTIBODY-DRUG CONJUGATE THEREOF AND USE THEREOF” (EVOPOINT BIOSCIENCES CO., LTD., priority 2021, published 2026)
# Changes are numbered by the printed parent chain.
# B1: 2D3A11: anti-human Claudin18.2 murine monoclonal antibody, VH SEQ ID NO: 23, VL SEQ ID NO: 24 (antibody, V domains shown)
# VH: EVQLQQSGPELVKPGASVRMSCKASGYTFTSYVVHWVKQKPGQGLEWIGYINPYNADSKYNERFKGKATLTSDKSSNSAYMELSSLTSEDSAVYYCSRSYYGNSFDVWGAGTTVTVSS
# VL: DIVMTQSPSSLTVTTGEKVTMSCKSSQSLLNSGNQKNYLTWYQQKPGQSPKLLFFWASTRQSGVPDRFTGSGSGTYFTLTISSVQAEDLAVYYCQNDYYFPFTFGTGTKLEIK
# B2: 25C7A5: anti-human Claudin18.2 murine monoclonal antibody, VH SEQ ID NO: 21, VL SEQ ID NO: 22 (antibody, V domains shown)
# VH: EVQLQQPGAELVKPGTSVKLSCKASGYTFTNYWLHWVRQRPGQGLEWIGMMHPISGSSNNNERFKSKATLTVDKSSTTAYMQLSRMTSEDSAVYYCARGLLSAMDYWGQGTSVTVSS
# VL: CIVLTQSPKSMSMSVGERVTLSCKASENVKTYVSWYQQRPEQSPKLLIYEASNRYTGVPDRFTGSGSATVFTLTISSVQTEDLANYFCGQTYSFPPTFGSGTKLEIK
# B3: 40G11H2: anti-human Claudin18.2 murine monoclonal antibody, VH SEQ ID NO: 50, VL SEQ ID NO: 51 (antibody, V domains shown)
# VH: EVQLQQSGAELARPGASVKLSCKASGYTFTSYGIRWVKQRTGQGLEWIGEIYPRGGNTYYDEKFKGKATLTADKSSSTAYMGLRSLTSEDSAVYFCARADYGNSFAYWGQGTLVTVSA
# VL: DIVMTQSPSSLTVTAREKVTMSCKSSQSLLNSGNQKNYLTWYHQKPGQPPKLLIYWASTRESGVPDRFTGSGSGTDFTLTISSVQAEDLAVYFCQNAYFYPFTFGTGTKLEIK
# B4: 8H11A10: anti-human Claudin18.2 murine monoclonal antibody, VH SEQ ID NO: 44, VL SEQ ID NO: 45 (antibody, V domains shown)
# VH: QVQLKESGPVLVAPSQSLSITCTVSGFSLTNYGVHWVRQPPGKGLEWLGVIWSGGRTNYNSALMSRLSISKDNSKSQVFLKMNSLQTDDTAMYYCAKRDGIYGDYWGQGTSVTVSS
# VL: DIVETQSPSSLTVTAGEKVTMSCKSSQSLLNSGNQKNYLTWYQQKPGQSPKLLIYWASTRESGVPDRFTGSGFGTDFTLTISSVQAEDLAVYYCQNDYIYPLTFGAGTKLELK
# B5: 23F2F2: anti-human Claudin18.2 murine monoclonal antibody, VH SEQ ID NO: 48, VL SEQ ID NO: 49 (antibody, V domains shown)
# VH: QVQLKESGGGLVQPGGSMKLSCAASGFTFSDAWMNWVRQSPEKGLEWVAEIRNKADYHATHYVESVTGRFTISRDDSKSSVYLQMNRLRAEDTGIYYCTRNYGSRFDYWGQGTTLTVSS
# VL: B4 VL with K36R, Q48H, S49P, F73S, I81V, S82T, I99F, T103A, A106T
# B6: 32F7A6: anti-human Claudin18.2 murine monoclonal antibody, VH SEQ ID NO: 52, VL SEQ ID NO: 53 (antibody, V domains shown)
# VH: QIQLVQSGPELRKPGETVKISCKASGYTFTAYTMGWVKQAPGKGLEWMAWINTYSGVPTYAADFKGRFAFSLETSASTAYLLINNLKNEDTATYFCARGVRGNSMDYWGQGTSVTVSS
# VL: DIVETQSPSSLTVTVGERVTLSCKSSQSLLNSGNQRNYLTWSQQKPGQPPKLLIYWASTRESGVPNRFTGGGSGTYFTLTISSVQVEDLAVYYCQNTYSFPFTFGTGTKLEIK
# Target: T1, human Claudin18.2 (Homo sapiens, UniProt P56856)
# T1 construct: expressed in transfected cells
# Test: Cell-based ELISA affinity of murine antibodies on HEK293T-Claudin18.2 (human) cells
# Format: binding
# Experimental: The affinity of the anti-human Claudin18.2 murine monoclonal antibodies was evaluated by cell-based ELISA. The experimental procedures were as follows: The day before the experiment, HEK293T-Claudin18.2 (human) cells were plated in a 96-well plate at 5×10^4 cells/well. On the day of the experiment, the supernatant was removed, the cells in each well were washed once with 300 μL of PBS, and 100 μL of 4% paraformaldehyde was added to each well for fixation at room temperature for 20 min. Paraformaldehyde was then removed, and the cells in each well were washed twice with 300 μL of PBS. 100 μL of 2% BSA (in PBS) was added to each well, and the mixture was blocked at 37° C. for 2 h. After removing the blocking solution, each antibody subjected to gradient dilution (diluted with 2% BSA (in PBS), starting at […], in a 3-fold gradient, for a total of 11 concentration points) was added to the plate at 100 μL/well, and the mixture was incubated at 37° C. for 2 h. The supernatant was removed, and the cells in each well were washed three times with 300 μL of PBST. 100 μL of an anti-mouse IgG HRP secondary antibody (Jackson, cat #115-035-003) in 2% BSA was added to each well, and the mixture was incubated at 37° C. for 1 h. The secondary antibody was then removed, and the cells in each well were washed five times with 300 μL of PBST, followed by the addition of 100 μL of a TMB substrate (Huzhou InnoReagents Co., Ltd.) per well for color development for 5-20 min. The reaction was stopped by adding 50 μL of 2 N HCl to each well, and OD450 nm values were read on a microplate reader (manufacturer: MD, model: SpectraMax). The values obtained were plotted by GraphPad Prism to calculate the EC50 value.
row,Molecule,Affinity HEK293T-18.2 EC50 [ng/mL]
1,B1,8.143
2,B2,10.49
3,B3,7.376
4,B4,12.32
5,B5,6.015
6,B6,2.399
